Assay in all cases: flow cytometry
One test concerns the target T1, human SPNS2 F133A mutant (human, UniProt Q8IVW8 1-549).
T1 sequence: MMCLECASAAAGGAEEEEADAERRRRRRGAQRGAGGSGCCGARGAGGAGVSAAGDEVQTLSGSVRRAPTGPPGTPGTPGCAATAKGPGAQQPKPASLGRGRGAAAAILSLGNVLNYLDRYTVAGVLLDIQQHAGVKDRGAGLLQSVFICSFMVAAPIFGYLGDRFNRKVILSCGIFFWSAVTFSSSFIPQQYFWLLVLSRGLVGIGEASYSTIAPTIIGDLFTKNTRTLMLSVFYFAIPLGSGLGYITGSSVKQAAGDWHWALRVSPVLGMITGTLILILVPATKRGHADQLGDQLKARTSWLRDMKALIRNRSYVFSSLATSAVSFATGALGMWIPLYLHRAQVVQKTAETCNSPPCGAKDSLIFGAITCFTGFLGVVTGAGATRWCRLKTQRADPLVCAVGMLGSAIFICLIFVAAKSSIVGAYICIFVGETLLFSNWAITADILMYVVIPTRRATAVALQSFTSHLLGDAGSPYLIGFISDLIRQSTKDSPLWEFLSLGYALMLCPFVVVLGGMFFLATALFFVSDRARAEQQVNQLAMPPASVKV

The next test deals with T2, human SPNS2 Q130A mutant (human, UniProt Q8IVW8 1-549).
T2 sequence: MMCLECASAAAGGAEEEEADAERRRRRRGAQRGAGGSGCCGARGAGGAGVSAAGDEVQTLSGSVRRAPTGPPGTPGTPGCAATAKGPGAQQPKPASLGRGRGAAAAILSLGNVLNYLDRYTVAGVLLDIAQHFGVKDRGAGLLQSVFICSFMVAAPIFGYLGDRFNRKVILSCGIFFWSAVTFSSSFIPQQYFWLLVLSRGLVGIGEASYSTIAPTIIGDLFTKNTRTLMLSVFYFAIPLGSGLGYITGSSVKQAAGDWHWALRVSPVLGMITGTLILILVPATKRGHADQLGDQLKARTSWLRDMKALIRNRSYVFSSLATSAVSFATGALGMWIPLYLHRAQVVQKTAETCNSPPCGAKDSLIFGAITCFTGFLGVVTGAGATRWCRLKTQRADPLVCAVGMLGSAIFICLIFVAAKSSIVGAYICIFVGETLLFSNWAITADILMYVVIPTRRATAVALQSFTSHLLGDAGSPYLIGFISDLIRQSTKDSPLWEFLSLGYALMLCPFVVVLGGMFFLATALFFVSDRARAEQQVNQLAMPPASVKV

The next test has as its target T3, human SPNS2 D128A mutant (human, UniProt Q8IVW8 1-549).
T3 sequence: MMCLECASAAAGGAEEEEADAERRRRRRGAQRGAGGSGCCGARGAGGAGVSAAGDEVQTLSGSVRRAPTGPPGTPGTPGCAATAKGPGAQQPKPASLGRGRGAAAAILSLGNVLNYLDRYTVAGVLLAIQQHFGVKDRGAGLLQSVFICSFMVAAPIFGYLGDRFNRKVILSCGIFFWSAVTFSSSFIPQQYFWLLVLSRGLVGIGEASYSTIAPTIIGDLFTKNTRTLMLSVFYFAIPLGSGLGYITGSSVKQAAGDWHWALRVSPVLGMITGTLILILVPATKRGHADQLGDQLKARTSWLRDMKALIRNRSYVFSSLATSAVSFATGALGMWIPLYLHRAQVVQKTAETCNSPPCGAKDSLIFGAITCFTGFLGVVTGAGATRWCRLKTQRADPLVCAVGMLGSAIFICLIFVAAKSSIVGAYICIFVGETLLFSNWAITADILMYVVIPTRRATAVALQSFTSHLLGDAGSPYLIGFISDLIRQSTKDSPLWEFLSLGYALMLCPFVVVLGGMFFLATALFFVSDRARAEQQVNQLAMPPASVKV

For another test, the target named is T4, human SPNS2 Q131A mutant (human, UniProt Q8IVW8 1-549).
T4 sequence: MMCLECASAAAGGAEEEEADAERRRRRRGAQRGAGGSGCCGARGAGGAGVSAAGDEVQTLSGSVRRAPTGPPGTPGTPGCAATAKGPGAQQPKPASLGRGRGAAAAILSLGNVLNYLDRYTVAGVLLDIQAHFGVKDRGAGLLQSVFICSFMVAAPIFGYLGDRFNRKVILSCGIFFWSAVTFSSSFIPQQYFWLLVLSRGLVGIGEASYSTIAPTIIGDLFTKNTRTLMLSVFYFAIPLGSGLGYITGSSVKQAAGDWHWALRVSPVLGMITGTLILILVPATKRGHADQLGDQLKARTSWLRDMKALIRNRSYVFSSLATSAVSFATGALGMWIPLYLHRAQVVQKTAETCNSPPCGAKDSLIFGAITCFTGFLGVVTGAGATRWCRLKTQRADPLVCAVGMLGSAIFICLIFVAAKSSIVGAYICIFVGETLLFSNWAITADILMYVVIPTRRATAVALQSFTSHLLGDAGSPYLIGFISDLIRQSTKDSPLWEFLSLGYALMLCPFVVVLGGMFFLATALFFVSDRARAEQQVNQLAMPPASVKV

The next test deals with T5, human SPNS2 Q190A mutant (human, UniProt Q8IVW8 1-549).
T5 sequence: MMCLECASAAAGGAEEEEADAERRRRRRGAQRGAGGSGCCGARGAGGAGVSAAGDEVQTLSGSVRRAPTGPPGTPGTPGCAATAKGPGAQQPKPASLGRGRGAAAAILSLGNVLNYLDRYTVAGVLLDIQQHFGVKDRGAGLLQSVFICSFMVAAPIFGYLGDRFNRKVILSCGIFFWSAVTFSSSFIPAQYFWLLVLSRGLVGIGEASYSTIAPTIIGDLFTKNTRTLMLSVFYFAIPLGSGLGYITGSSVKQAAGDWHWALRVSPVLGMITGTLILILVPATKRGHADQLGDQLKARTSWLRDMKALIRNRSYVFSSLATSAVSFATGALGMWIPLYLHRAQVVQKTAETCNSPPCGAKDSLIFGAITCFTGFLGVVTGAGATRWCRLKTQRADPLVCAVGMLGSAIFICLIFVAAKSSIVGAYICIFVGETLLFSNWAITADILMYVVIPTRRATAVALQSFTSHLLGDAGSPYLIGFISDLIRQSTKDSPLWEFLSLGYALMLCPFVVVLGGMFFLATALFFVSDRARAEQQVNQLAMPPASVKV

Results on nine molecules are retold here after patent publication US20210147523A1 (TEIJIN PHARMA, published 2021).

B1: 50-0704C (antibody, IgG2b, V domains shown)
VH: EVQLVGSGGGLVQPGRSMKLSCEASGFTFSNHYMAWVRQAPTKGLEWVATISTGGGNTYYRDSVKGRFTISRDNARSTLSLQMDSLRSEDTATYYCARQDYSNYMGGFAYWGQGTLVTVSS
VL: QFVLTQPNSVSTNLGSTVKLSCTRSIGNIGNNYVNWYKQYEGRSPTTMIYRDDERPDGVPDRFSGSIDRSSNSALLTINSVQTEDEADYFCQSFSSGIFIFGGGTKLTVL
Turning to B1, the “binding ratio vs native type” value with human SPNS2 F133A mutant and with human SPNS2 Q130A mutant was < 0.5 ratio throughout.

B2: 49-0703G (antibody, IgG2b, V domains shown)
VH: EVQLVESGGGLVQPGRSMKLSCAASGFTFSNHYMAWVRQAPTKGLEWVASISTGGGNTYYRDSVKGRFTISRDNAKSTLYLQMDSLRSEDTATYYCARQDYSNYMGGFAYWGQGTLVTVSS
VL: QFVLTQPNSVSTNLGSTVKLSCKRSTGNIGNNYVNWYQQYEGRSPTTMIYRDDERPDGVPDRFSGSIDRSSNSALLTINNVQTEDEADYFCQSFSNGMFIFAGGTQLTVL
With B2, the “binding ratio vs native type” value with human SPNS2 F133A mutant and in the test with human SPNS2 Q130A mutant was < 0.5 ratio each time.

B3: 18-0211B (antibody, IgG2b, V domains shown)
VH: AVQLVGSGGGLVQPGRSMKLSCEASGFTFSNHYMAWVRQAPTRGLEWVATISTGGGNTYYRDSVKGRFTISRDNTRSTLSLQMDSLRSEDTATYYCTRQDYTNYMGGFAYWGQGTLVTVSS
VL: QFVLTQPNSVSTNLGSTVKLSCTRSIGNIGNNYVNWYKQYEGRSPTTLIYRDDERPDGVPDRFSGSIDRSSNSALLTINSVQTEDGADYFCQSFSSGIFIFGGGTTLTVL
For the molecule B3, the “binding ratio vs native type” value in the test with human SPNS2 Q130A mutant was < 0.5 ratio.

B4: 37-0511F (antibody, IgG2b, V domains shown)
VH: EVHLQQSGAALVRPRASVKLSCKVSGDSISRYYVHFVKQRPGQGLEWIGRIDPEDDTTKYSEKFKNRATLTADASSDTASLILSGLTSDDTATYFCSTLTGLDYWGQGVMVTVSS
VL: DIQMTQSPPVLSTSVGDRVTLRCKPSQNVHSKLDWYQQKHGEAPKLLIYYTHNLQTGIPSRFSGSGSGTDYTLTISSLQPEDVATYYCFQYYSGWTFGGGTKLEMKR
In the case of B4, the “binding ratio vs native type” value with human SPNS2 D128A mutant is < 0.5 ratio.

B5: 53-0707E (antibody, IgG2b, V domains shown)
VH: EVQLQQSGAELVRPRTSVKLSCKVSGDSITRYYVHFVKQRPGQGLEWIGRIDPEDDTTKYSEKFKKKATLTADASSNTAYLIFSGLTSEDTATYFCSTLTGLDYWGQGVMVTVSS
VL: DIQMTQSPPVLSTSVGDRVTLRCKASQNVHSKLDWYQQKHGEAPKLLIYYTHNLQTGIPSRFSGSGSGTDYTLTISSLQPEDVATYYCFQYYSGWTFGGGTKLEMKR
B5: in the test with human SPNS2 D128A mutant, the “binding ratio vs native type” value was < 0.5 ratio.

B6: 64-0807A (antibody, IgG2b, V domains shown)
VH: EVQVVESGGGLVQPGRSMKLSCAALGFTFRDYYMAWVRQTPTKGLEWVAAISTGGGNTYYRDSVKGRFTISRDNAKSTLYLQMDSLRSDDTATYYCARNPYGNYFDYWGQGVMVTVSS
VL: QFVLSQPNSVSTNLGSTVKLSCKRSTGNIGSNYVHWYQRHEGRSPTTLIYRDDKRPNGVPDRFSGSIDRSSNSALLTINNVQTEDEADYFCQSYSGGMYLFGGGTKLTVL
Consider B6, for which, in the test with human SPNS2 Q131A mutant, the “binding ratio vs native type” value is < 0.5 ratio.

B7: 65-0810G (antibody, IgG2b, V domains shown)
VH: EVHLVESGGGLVQPGRSMKLSCTASGFTFNNYYMAWVRQAPTKGLEWVASISTGGGYTYYRDSVKGRFTISRDNTGNTLYLQMDSLRSEDTATYYCARCWELPYWGQGVMVTVSS
VL: QFVLTQPNSVSTNLGSTVKLSCRRSSGNIGNNYVNWYRQHEGRSPTTMIYRDDTRPDGVPNRFSGSIDRSSNSALLTINNVRPEDEAYYFCQSYSGSIYIFGGGTKLTVL
On to B7, for which the “binding ratio vs native type” value with human SPNS2 Q131A mutant and in the test with human SPNS2 F133A mutant was < 0.5 ratio each time.

B8: 93-1310F (antibody, IgG2b, V domains shown)
VH: EVQLVETGGGLVQPGSSLKLSCATSGFTFSDTWMSWVRQAPGKGLEWVALIKDKNSNYEANYAESVKGRFTISRDDSKRRVYLQMFTLRDQDTATYYCTSHEDFYYYSSYYFDYWGHGVMVTVSS
VL: DIVLTQSPATLSVTPGESVSLSCRASQGISTSIHWYQQKSNGSPRLLIKYASQSISGIPSRFSGSGSGTDFTLRINRVESEDFSVYYCQQTYSLPLTFGSGTRLEIKR
B8: the “binding ratio vs native type” value in the test with human SPNS2 F133A mutant and with human SPNS2 Q190A mutant was < 0.5 ratio throughout.

B9: 96-1403F (antibody, IgG2b, V domains shown)
VH: EVQLVETGGGLVRPGSSLKLSCATSGFTFSDTWMSWVRQAPGKGLEWVALIKDKNSNSEANYAESIKGRFTISRDDSKSRVYLQMNTLRDQDTATYYCTRHEDFYYYSGYYFDYWGQGVMVTVSS
VL: DIVLTQSPPTLSVTPGESVSLSCRASQGISTSIHWYQQRSNESPRLLIKYASQSIAGIPSRFSGSGSGTDFILSINRVESEDFSVYYCQQTYSLPLTFGPGTKLEVKR
Turning to B9, the “binding ratio vs native type” value with human SPNS2 F133A mutant and in the test with human SPNS2 Q190A mutant was < 0.5 ratio in each case.
